Earlier results, collected in paper PMC11765717, “In Vitro Insights into Bacteriocin-Mediated Modulation of Chicken Cecal Microbiota” (International Journal of Molecular Sciences, 2025).

Assays:
[1] = ref [67],[76]; cited from earlier work
[2] = system: L. ivanovii; set-up: method as in PMID 35170996; conditions: sensitive strain L. ivanovii; ref [64]; cited from earlier work

Pediocin PA-1 (M31L) (KYYGNGVTCGKHSCSVDWGKATTCIINNGALAWATGGHQGNHKC; UniProt P29430 19-62, looked up, variant M31L) [44 aa linear peptide containing two disulfide bridges, M31L variant, prepared by solid-phase peptide synthesis]
Antibacterial activity in conditions mimicking the small intestine, in words [1]: losing its antibacterial activity completely | MIC (µg/mL) [2]: 0.09 µg/mL
